From patent publication EP1482987B1 (Bracco Suisse SA, dated 2014) come the findings set out here.

In assay [1] the target is KDR on human umbilical vein endothelial cells (HUVECs) (human, UniProt P35968 20-1356). In words: cell-based or functional assay.
Assay [2] has as its target KDR (full-length receptor) expressed on transiently transfected 293H cells (human) (UniProt P35968). In words: competition with 300 pM 125I-VEGF on KDR-transfected 293H cells; peptide 30 µM.
The target is the same in assay [3]. In words: competition with 300 pM 125I-VEGF on KDR-transfected 293H cells; peptide 0.3 µM.
In a further assay the target is Soluble KDR receptor (UniProt P35968 20-764, limits assumed). In words: SPR (Biacore 3000), soluble KDR on CM5.
Sequence of Soluble KDR receptor (P35968 20-764 limits assumed): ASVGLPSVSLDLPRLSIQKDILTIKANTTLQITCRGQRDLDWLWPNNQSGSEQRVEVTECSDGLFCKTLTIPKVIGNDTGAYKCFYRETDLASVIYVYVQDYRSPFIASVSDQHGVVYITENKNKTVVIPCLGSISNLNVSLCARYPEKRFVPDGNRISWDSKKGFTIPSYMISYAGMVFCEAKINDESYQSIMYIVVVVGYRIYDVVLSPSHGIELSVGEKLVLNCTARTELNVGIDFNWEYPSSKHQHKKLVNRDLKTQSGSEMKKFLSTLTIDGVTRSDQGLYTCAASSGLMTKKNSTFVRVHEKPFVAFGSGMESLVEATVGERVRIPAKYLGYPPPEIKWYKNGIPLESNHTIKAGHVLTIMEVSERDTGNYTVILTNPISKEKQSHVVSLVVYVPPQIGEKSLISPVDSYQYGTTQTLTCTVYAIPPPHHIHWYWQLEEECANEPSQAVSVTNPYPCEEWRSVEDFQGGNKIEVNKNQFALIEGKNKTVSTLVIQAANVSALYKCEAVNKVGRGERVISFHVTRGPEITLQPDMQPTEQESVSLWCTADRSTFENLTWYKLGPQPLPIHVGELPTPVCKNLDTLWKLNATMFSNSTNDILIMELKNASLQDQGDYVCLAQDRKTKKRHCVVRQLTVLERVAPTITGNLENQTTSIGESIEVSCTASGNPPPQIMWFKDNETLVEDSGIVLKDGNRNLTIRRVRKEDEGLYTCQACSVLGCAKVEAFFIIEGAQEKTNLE

*1 amine or outer side, *2 acyl side, *3 side chain or, on linkers, in order; H or OH if unused. Bridges are numbered along the chain shown (N, C = ends). Roman numbers before positions name the chains, in order. Primed or numbered codes have the meaning given here. Where no end group is shown, it is not given here. Side-chain parts run from the residue outwards. The star is where a group is joined. ivDde′ = (4,4-dimethyl-2,6-dioxocyclohex-1-ylidene)-3-methylbutyl protecting group, CC(C)CC(=C1C(=O)CC(C)(C)CC1=O)*; Biotin = O=C1N[C@H]2[C@H](CS[C@H]2CCCCC(=O)*)N1; Glutaryl = O=C(CCCC(=O)[*:2])[*:1]; AEEA = NCCOCCOCC(=O)O

Sequence of KDR on human umbilical vein endothelial cells (HUVECs) (P35968 20-1356): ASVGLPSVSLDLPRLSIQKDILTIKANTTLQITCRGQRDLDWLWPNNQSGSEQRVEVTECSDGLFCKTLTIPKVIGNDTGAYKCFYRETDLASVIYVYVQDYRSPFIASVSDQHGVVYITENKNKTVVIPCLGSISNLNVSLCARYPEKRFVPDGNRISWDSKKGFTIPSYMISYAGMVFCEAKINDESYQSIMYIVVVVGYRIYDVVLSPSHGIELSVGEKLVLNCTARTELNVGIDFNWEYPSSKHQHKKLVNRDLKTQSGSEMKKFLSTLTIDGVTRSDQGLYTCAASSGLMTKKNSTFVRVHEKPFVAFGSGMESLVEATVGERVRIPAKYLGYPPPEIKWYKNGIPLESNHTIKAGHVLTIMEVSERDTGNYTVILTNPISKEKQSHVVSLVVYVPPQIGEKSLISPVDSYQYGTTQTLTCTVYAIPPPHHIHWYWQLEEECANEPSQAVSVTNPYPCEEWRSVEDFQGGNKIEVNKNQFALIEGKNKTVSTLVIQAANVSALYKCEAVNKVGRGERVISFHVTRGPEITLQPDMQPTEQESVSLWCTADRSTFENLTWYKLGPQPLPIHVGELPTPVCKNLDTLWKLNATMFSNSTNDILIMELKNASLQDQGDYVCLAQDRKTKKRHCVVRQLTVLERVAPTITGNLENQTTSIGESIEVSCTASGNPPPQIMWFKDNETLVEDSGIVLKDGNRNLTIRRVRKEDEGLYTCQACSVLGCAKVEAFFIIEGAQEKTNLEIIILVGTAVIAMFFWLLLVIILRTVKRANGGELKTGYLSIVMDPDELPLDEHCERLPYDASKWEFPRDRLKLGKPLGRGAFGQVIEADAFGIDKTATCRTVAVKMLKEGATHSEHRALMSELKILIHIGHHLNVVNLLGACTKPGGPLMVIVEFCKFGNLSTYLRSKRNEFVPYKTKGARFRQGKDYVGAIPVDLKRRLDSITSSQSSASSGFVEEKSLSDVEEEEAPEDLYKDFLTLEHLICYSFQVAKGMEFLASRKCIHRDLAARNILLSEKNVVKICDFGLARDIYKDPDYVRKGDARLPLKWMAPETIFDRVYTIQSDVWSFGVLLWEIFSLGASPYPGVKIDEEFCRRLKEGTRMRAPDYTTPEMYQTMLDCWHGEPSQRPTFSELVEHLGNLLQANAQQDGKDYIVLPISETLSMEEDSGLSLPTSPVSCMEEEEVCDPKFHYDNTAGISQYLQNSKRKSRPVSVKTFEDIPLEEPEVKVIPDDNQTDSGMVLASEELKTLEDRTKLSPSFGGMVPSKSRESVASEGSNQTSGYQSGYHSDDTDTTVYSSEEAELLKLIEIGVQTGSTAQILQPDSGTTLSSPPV
Sequence of KDR (full-length receptor) expressed on transiently transfected 293H cells (human) (P35968 20-1356): as above

B1: P3-D (peptide)
peptide: Ac-AGWLECYAEFGHCYNFGTGGGK-NH2
modifications: disulfide 6-13
SMILES: CC(=O)N[C@@H](C)C(=O)NCC(=O)N[C@@H](Cc1c[nH]c2ccccc12)C(=O)N[C@@H](CC(C)C)C(=O)N[C@@H](CCC(=O)O)C(=O)N[C@H]1CSSC[C@@H](C(=O)N[C@@H](Cc2ccc(O)cc2)C(=O)N[C@@H](CC(N)=O)C(=O)N[C@@H](Cc2ccccc2)C(=O)NCC(=O)N[C@H](C(=O)NCC(=O)NCC(=O)NCC(=O)N[C@@H](CCCCN)C(N)=O)[C@@H](C)O)NC(=O)[C@H](Cc2c[nH]cn2)NC(=O)CNC(=O)[C@H](Cc2ccccc2)NC(=O)[C@H](CCC(=O)O)NC(=O)[C@H](C)NC(=O)[C@H](Cc2ccc(O)cc2)NC1=O
Turning to B1, the “inhibition of VEGF-induced KDR phosphorylation” value in assay [1] was not below 50 % inhibition at 10 µM.

B2: P12-XB (peptide)
peptide: Ac-AGPTWCEDDWYYCWLFGTGGGK([AEEA-AEEA-Biotin])-NH2
modifications: disulfide 6-13
SMILES: CC(=O)N[C@@H](C)C(=O)NCC(=O)N1CCC[C@H]1C(=O)N[C@H](C(=O)N[C@@H](Cc1c[nH]c2ccccc12)C(=O)N[C@H]1CSSC[C@@H](C(=O)N[C@@H](Cc2c[nH]c3ccccc23)C(=O)N[C@@H](CC(C)C)C(=O)N[C@@H](Cc2ccccc2)C(=O)NCC(=O)N[C@H](C(=O)NCC(=O)NCC(=O)NCC(=O)N[C@@H](CCCCNC(=O)COCCOCCNC(=O)COCCOCCNC(=O)CCCC[C@@H]2SC[C@@H]3NC(=O)N[C@@H]32)C(N)=O)[C@@H](C)O)NC(=O)[C@H](Cc2ccc(O)cc2)NC(=O)[C@H](Cc2ccc(O)cc2)NC(=O)[C@H](Cc2c[nH]c3ccccc23)NC(=O)[C@H](CC(=O)O)NC(=O)[C@H](CC(=O)O)NC(=O)[C@H](CCC(=O)O)NC1=O)[C@@H](C)O
On to B2, for which the “IC50, receptor activation assay” value in assay [1] was 100 nM. Also, the values for the % inhibition of 125I-VEGF binding in assay [2] and in assay [3] were 104% and 81%, respectively. Consider GDSRVCWEDSWGGEVCFRYDP [P6], for which the figures for the % inhibition of 125I-VEGF binding in assay [2] and in assay [3] were 96.3% and 52.3%, respectively.

B3: P7-E (peptide)
peptide: Ac-GDWWECK(ivDde′)REEYRNTTWCAWADPGGGK-NH2
modifications: disulfide 6-17
SMILES: CC(=O)NCC(=O)N[C@@H](CC(=O)O)C(=O)N[C@@H](Cc1c[nH]c2ccccc12)C(=O)N[C@@H](Cc1c[nH]c2ccccc12)C(=O)N[C@@H](CCC(=O)O)C(=O)N[C@H]1CSSC[C@@H](C(=O)N[C@@H](C)C(=O)N[C@@H](Cc2c[nH]c3ccccc23)C(=O)N[C@@H](C)C(=O)N[C@@H](CC(=O)O)C(=O)N2CCC[C@H]2C(=O)NCC(=O)NCC(=O)NCC(=O)N[C@@H](CCCCN)C(N)=O)NC(=O)[C@H](Cc2c[nH]c3ccccc23)NC(=O)[C@H]([C@@H](C)O)NC(=O)[C@H]([C@@H](C)O)NC(=O)[C@H](CC(N)=O)NC(=O)[C@H](CCCNC(=N)N)NC(=O)[C@H](Cc2ccc(O)cc2)NC(=O)[C@H](CCC(=O)O)NC(=O)[C@H](CCC(=O)O)NC(=O)[C@H](CCCNC(=N)N)NC(=O)[C@H](CCCCNC(CC(C)C)=C2C(=O)CC(C)(C)CC2=O)NC1=O
In the case of B3, the “inhibition of VEGF-induced KDR phosphorylation” value in assay [1] was not below 50 % inhibition at 10 µM.

B4: P8-D (peptide)
peptide: Ac-GDPDTCTMWGDSGRWYCFPADPGGGK-NH2
modifications: disulfide 6-17
SMILES: CSCC[C@@H]1NC(=O)[C@H]([C@@H](C)O)NC(=O)[C@@H](NC(=O)[C@@H](NC(=O)[C@H](CC(=O)O)NC(=O)[C@@H]2CCCN2C(=O)[C@H](CC(=O)O)NC(=O)CNC(C)=O)[C@@H](C)O)CSSC[C@@H](C(=O)N[C@@H](Cc2ccccc2)C(=O)N2CCC[C@H]2C(=O)N[C@@H](C)C(=O)N[C@@H](CC(=O)O)C(=O)N2CCC[C@H]2C(=O)NCC(=O)NCC(=O)NCC(=O)N[C@@H](CCCCN)C(N)=O)NC(=O)[C@H](Cc2ccc(O)cc2)NC(=O)[C@H](Cc2c[nH]c3ccccc23)NC(=O)[C@H](CCCNC(=N)N)NC(=O)CNC(=O)[C@H](CO)NC(=O)[C@H](CC(=O)O)NC(=O)CNC(=O)[C@H](Cc2c[nH]c3ccccc23)NC1=O
On to B4, for which the “inhibition of VEGF-induced KDR phosphorylation” value in assay [1] was not below 50 % inhibition at 10 µM. Turning to Ac-AQGDYVYWEIIELTGATDHTPPGGGK-NH2 [P11-D], in assay [1], the “inhibition of VEGF-induced KDR phosphorylation” value was not below 50 % inhibition at 10 µM.

B5: Head-to-head dimer (P9/P10 heterodimer) (peptide)
peptide 1: AQEPEGYAYWEVITLYHEEDGDGG
peptide 2: AQAFPRFGGDDYWIQQYLRYTDGG
modifications: bridge I:N-II:N; not fully specified (N-terminus); also: head-to-head heterodimer, N-termini joined by oxime
notes: also called H-H dimer
Consider B5, for which the “fold increase in affinity over P10” value with Soluble KDR receptor was more than 560 fold.

B6: D1 (peptide)
peptide 1: AGPTWCEDDWYYCWLFGTGGGK
peptide 2: VCWEDSWGGEVCFRYDPGGGK
modifications: linker (positions not given here) via Glutaryl; disulfide I:6-I:13, II:2-II:12; also: two chains linked by a glutaryl linker, exact groups only in a drawing
As for B6, in assay [1], the “IC50, receptor activation assay” value fell in the range of 0.5 to 1 nM.
